Reference: US20200339680A1 (Alector, published 2020)
Positions count from the first letter of the chain named.

B1: TM-33 (antibody, V domains shown)
VH: EFQLQQSGPELVKPGASVKISCKASGYSFTDYNMNWVKQSNGKSLEWIGVINPNYGTTSYNQKFKGKATLTVDQSSSTAYMQLNSLTSEDSAVYYCASSYWGQGTLVTVSA
VL: DIVMTQSQKFMSTTVGDRVSITCKASQNVGTAVAWYQQKPGQSPKLLIYSASNRYTGVPDRFTGSGSGTDFTLTISNMQSEDLADYFCQQYSSYPYTFGGGTKLEIK
notes: mouse IgG (hybridoma)
B2: TM-27 (antibody, V domains shown)
VH: QVQLQQSGAELVRPGTSVKVSCKASGYALTNYLIEWVKQRPGQGLEWIGVINPGSGSTKYNEKFKGKATLTADKSSSTAYMQLSSLTSEDSAVYFCARIIYDHDWYFDVWGTGTTVTVSS
VL: QIVLTQSPAIMSASPGEKVTISCSASSSISYMYWYQQKPGSSPKPWIYRTSTLASGVPARFSGSGSGTSYSLTISSMEAEDAATYYCQQYHSYPRTFGGGTKLEIK
B3: TM-49 (antibody, V domains shown)
VH: QVQLQQPGAELVRPGSSVKLSCKASGYTFTRFWMHWVKQRPIQGLEWIGNIDPSDSQTHYNQKFKDKATLTVDKSSSTAYMQLSSLTSEDSAVYYCARLITVDYAMDYWGQGTSVTVSS
VL: B2 VL with I29V, Y48H, T52N, A59V, R95P, G99A, I105L
notes: mouse IgG (hybridoma)
B4: TM-52 (antibody, V domains shown)
VH: QVQLQQPGAELVKPGASVKLSCKASGYTFTNYWMHWVKQRPGQGLDWIGNIDPSDSETHYNQKFKDKATLTVDKVSSTAYMQLSSLTSEDSAVYYCARRGYYGRSPFAYWGQGTLVTVSA
VL: ENVLTQSPAIMSASPGEKVTMTCSASSSVSYMHWYQQKSNTSPKLWIYDTSKLASGVPGRFSGSGSGNSYSLTISSAEAEDVATYYCFQGSGYPLTFGAGTKLELK
notes: mouse IgG (hybridoma)
B5: TM-35 (antibody, V domains shown)
VH: QVQLQQSGPELVRPGTSVKISCKAPGYTFTRHWMQWVRQRPGQGLEWIGEILPGSNNIYYNEKVKGKATLTVDTSSSTSYMQLSSLTSEDSAVYFCARSLYDYDGVFAYWGQGTLVTVSA
VL: DVLMTQIPLSLPVSLGDQASISCRSSQSIVHRNGNTYLEWYLQKPGQSPKLLIYKVSNRFSGVPDRFSGSGSGTDFTLKISRVEAEDLGVYYCFQGSHVPYTFGGGTKLEIK
B6: TM-48 (antibody, V domains shown)
VH: QVQLQQSGPELVKPGASVKLSCKASGYTFTSYDINWVKQRPGQGLEWIGWIYPRDGNTQYIEKLKGKATLTVDTSSSTAYMELHSLTSEDSAVYFCARWIFYAMDYWGQGTSVTVSS
VL: B5 VL with I7T, D17N, R32G, V99L
B7: TM-42 (antibody, V domains shown)
VH: QVQLQQSGAELAKPGASVKLSCKASGYTFTNYWMHWVKKRPGQGLEWIGYINPSSGYTKYNQKFKDKATLTADKSSNTAYMQLSSLTYEDSAVYYCTREGGSISDWYFDVWGTGTTVTVSS
VL: DIVMTQAAPSLPVTPGESVSISCRSSKSLLHSNGNTYLYWFLQRPGQSPQLLIYRMSNLASGVPDRFSGSGSGTAFTLRISRVEAEDVGVYYCMQHLEYPYTFGGGTKLEIK
B8: TM-45 (antibody, V domains shown)
VH: B7 VH
VL: B7 VL
B9: TM-37 (antibody, V domains shown)
VH: B7 VH with N31S, K39Q, I51V, Y60N, A68V, N77S, T97A
VL: B7 VL with L11V, L38S
B10: TM-44 (antibody, V domains shown)
VH: EVQLVESGGGLVKPGGSLKLSCAASGFTFSDYGMHWVRQAPEKGLEWVAYISSGSSTIYYADTVKGRFTISRDNAKNTLFLQMTSLRSEDTAMYYCARNYGSPYAMDYWGQGTSVTVSS
VL: not shown
notes: mouse IgG (hybridoma)
B11: TM-28 (antibody, V domains shown)
VH: EVQLQQSGPVLVKPGPSVKISCMASVFTFNDYYIHWVKQSHGKSLEWIGLVYPYNGGTNYNQNFKGKATLTVDTSSRTAYMELNSLTSEDSAVYYCARSYFSNPIGYWGQGTLVTVSE
VL: DIVMTQSPSSLSVSVGEKVTVSCKSSQSLLNSGNQKNYLAWYQQKPGQPPKLLIYGASTRESGVPDRFTGSGSGTDFTLTISSVQAEDLAVYYCQNDHSYPLTFGAGTKLELK
B12: TM-29 (antibody, V domains shown)
VH: QVQLRQSGAELVRPGASVKLSCKASGYTFTDYYINWVKQRPGQGLEWIARIYPGSGYTYYNEKFKGKATLTAEGSSNTAYMQLSSLTSEDSAVYFCANHYTNPFAYWGQGTLVTVSA
VL: DIVMTQAAFSNPVTLGTSASISCRSSKSLLHYNGITYLYWYLQKPGQSPQLLIYQMSNLASGVPDRFSSSGSGTDFTLRISRVEAEDVGVYYCAQNLELPYTFGGGTKLEIK
B13: TM-50 (antibody, V domains shown)
VH: QVQLKESGPVLVAPSQSLSITCTVSGFSLTNYGVHWVRQPPGKGLEWLGVIWAGGNTNYNSALMSRLSISKDNSKSQVFLKMNSLQTDDTAMYYCAKEAKLLRSYAMDYWGQGTLVTVSA
VL: DVQMTQTTSSLSASLGDRVTISCRASQDINNYLYWYQQKPDGTVKLLIYYTSMLHSGVPSRFSGSGSGTDYSLTISNLEQEDIATYFCQQGSTLMYTFGGGTKLEIK
notes: mouse IgG (hybridoma)

Each binder was assayed against T1, human TMEM106B (human, UniProt Q9NUM4 2-274) (assay: FACS A549;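 also: flow cytometry of cells incubated on ice for 1 h with hybridoma supernatant or purified antibody at 10 µg/mL, dead propidium iodide-positive cells gated out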).
T1 construct: full-length, transiently expressed on HEK293 cells, or natively expressed on HeLa, U251 and A549 cells (the cell is named under assay); also the source of the Pepscan peptides; also called huTMEM106B; huTMEM
Procedure: (§1) All cells were cultured in either T75 or T150 flasks. […] The enzyme was quenched by addition of fresh media, and the cells were then distributed into 96-well plates for FACS analysis.
(§2) FACS analysis was performed as follows. Each cell type was aliquoted in 96-well round bottom plates (2×10^5 cells per well), washed once with FACS buffer (PBS+2% FBS+1 mM EDTA), and incubated with 50 μL of hybridoma supernatant or purified antibody (10 μg/ml in FACS buffer) on ice for 1 hour. […] Following this secondary incubation, the cells were again washed 2× with ice-cold FACS buffer and resuspended in a final volume of 50 μL of FACS buffer+0.25 μl/well propidium iodide (Fisher Scientific #4BDB556463). Analysis was performed on a FACSCanto system (BD Biosciences) or iQue (Intellicyt), with sort gates drawn to exclude dead (i.e., propidium iodide positive) cells.

Binder | MFI [MFI]
B1 | 298
B2 | 1930
B3 | 924
B4 | 987
B5 | 982
B6 | 677
B7 | 947
B8 | 819
B9 | 1040
B10 | 392
B11 | 2000
B12 | 1410
B13 | 580

These binders were tested against T2, mouse TMEM106B (mouse, UniProt Q80X71 2-275) (assay: FACS Neuro2a;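 also: flow cytometry of antibody binding to cells: hybridoma supernatant or purified antibody at 10 µg/ml, 1 h on ice, secondary detection, propidium iodide–positive dead cells gated out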).
T2 construct: transiently expressed on HEK293 cells, or native on mouse Neuro2a cells; also called moTMEM106B; murine TMEM106B

Binder | MFI [MFI]
B1 | 233
B2 | 1580
B3 | 291
B4 | 210
B5 | 181
B6 | 292
B7 | 237
B8 | 187
B9 | 208
B10 | 202
B11 | 2740
B12 | 1480
B13 | 257

The binders below were run against T1, human TMEM106B (assay: FACS A549 1 ug/ml).

Binder | MFI [MFI]
B1 | 366
B2 | 431
B3 | 473
B4 | 401
B5 | 3270
B6 | 1580
B7 | 1780
B8 | 1860
B9 | 2980
B10 | 404
B11 | 2630
B12 | 2480
B13 | 381

The binders below were run against T1, human TMEM106B (assay: FACS HEK+huTMEM 10 ug/ml;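 also: flow cytometric binding of purified mouse IgG antibodies to HEK293 cells transiently expressing human TMEM106B, read as median fluorescence intensity on live cells with propidium iodide-positive cells excluded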).
Procedure: (§3) Purified anti-TMEM106B antibodies were evaluated for their binding affinity to various TMEM106B-expressing cell lines including HEK293 transiently transfected with human/cyno/mouse TMEM106B, as well as HeLa cells and A549 cells. Antibodies tested for this experiment were mouse IgGs purified from hybridoma supernatant. Affinity binding to cells was determined as follows. Briefly, 1×10\hat{ }5 cells were aliquoted per well in 96-well round bottom plates and incubated with 50 μL of purified anti-TMEM106B antibody at various concentrations (10× dilutions starting at 10 μg/ml) in FACS buffer (PBS+2% FBS+1 mM EDTA). […] Sorting was performed on a iQue (Intellicyt), with sort gates drawn to exclude dead (propidium iodide+) cells. Binding data was analyzed using median fluorescent intensity (MFI) and graphed in Prism. Values presented are MFI.

Binder | MFI [MFI]
B1 | 12100
B2 | 4140
B3 | 16500
B4 | 7020
B5 | 48700
B6 | 38200
B7 | 60100
B8 | 58100
B9 | 50500
B10 | 512
B11 | 64800
B12 | 61200
B13 | 396

These binders were tested against T1, human TMEM106B (assay: FACS HEK+huTMEM 1.0 ug/ml;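 also: binding of purified mouse IgG antibodies to HEK293 cells transiently expressing human TMEM106B, read by flow cytometry as median fluorescence intensity of live, propidium iodide-negative cells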).
Procedure: as §3

Binder | MFI [MFI]
B1 | 5630
B2 | 3040
B3 | 15700
B4 | 8200
B5 | 55400
B6 | 39900
B7 | 58100
B8 | 57600
B9 | 58700
B10 | 337
B11 | 66400
B12 | 63300
B13 | 314

Each binder was assayed against T1, human TMEM106B (assay: FACS U251).
Procedure: as §1, §2

Binder | MFI [MFI]
B1 | 202
B2 | 1320
B3 | 434
B4 | 341
B5 | 370
B6 | 346
B7 | 326
B8 | 517
B9 | 408
B10 | 522
B11 | 998
B12 | 730
B13 | 260

These binders were tested against T1, human TMEM106B (assay: FACS HeLa).

Binder | MFI [MFI]
B1 | 148
B2 | 2960
B3 | 187
B4 | 227
B5 | 241
B6 | 219
B7 | 215
B8 | 191
B9 | 254
B10 | 168
B11 | 2790
B12 | 1650
B13 | 159

The binders below were run against T1, human TMEM106B (assay: FACS HEK+huTMEM 0.1 ug/ml (2nd column so headed);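 also: flow cytometry binding of purified anti-TMEM106B mouse IgG to HEK293 cells transiently transfected with TMEM106B, read as median fluorescence intensity on live (propidium iodide-negative) cells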).
Procedure: as §3

Binder | MFI [MFI]
B1 | 651
B2 | 744
B3 | 756
B4 | 451
B5 | 4080
B6 | 4050
B7 | 2070
B8 | 2500
B9 | 3920
B10 | 300
B11 | 3340
B12 | 4050
B13 | 294

Each binder was assayed against T1, human TMEM106B (assay: FACS HEK+huTMEM 0.1 ug/ml;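 also: flow cytometry binding of purified mouse IgG antibodies to HEK293 cells transiently expressing TMEM106B, read as median fluorescence intensity on live cells (propidium iodide negative gating)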).

Binder | MFI [MFI]
B1 | 1750
B2 | 1700
B3 | 3030
B4 | 1940
B5 | 22600
B6 | 21600
B7 | 16700
B8 | 21300
B9 | 29400
B10 | 309
B11 | 19800
B12 | 24400
B13 | 305

These binders were tested against T1, human TMEM106B (assay: FACS A549 10 ug/ml).
Procedure: as §3

Binder | MFI [MFI]
B1 | 514
B2 | 622
B3 | 613
B4 | 443
B5 | 4200
B6 | 2450
B7 | 3300
B8 | 3240
B9 | 4210
B10 | 466
B11 | 4350
B12 | 4200
B13 | 445
